Test results taken from patent US20120315703A1.

Molecular target: Lrh-1 (liver receptor homolog 1, Nr5a2) (mouse) (UniProt P45448)
Assay: cell-based or functional assay

UniProt P45448, sequence (P45448 whole entry): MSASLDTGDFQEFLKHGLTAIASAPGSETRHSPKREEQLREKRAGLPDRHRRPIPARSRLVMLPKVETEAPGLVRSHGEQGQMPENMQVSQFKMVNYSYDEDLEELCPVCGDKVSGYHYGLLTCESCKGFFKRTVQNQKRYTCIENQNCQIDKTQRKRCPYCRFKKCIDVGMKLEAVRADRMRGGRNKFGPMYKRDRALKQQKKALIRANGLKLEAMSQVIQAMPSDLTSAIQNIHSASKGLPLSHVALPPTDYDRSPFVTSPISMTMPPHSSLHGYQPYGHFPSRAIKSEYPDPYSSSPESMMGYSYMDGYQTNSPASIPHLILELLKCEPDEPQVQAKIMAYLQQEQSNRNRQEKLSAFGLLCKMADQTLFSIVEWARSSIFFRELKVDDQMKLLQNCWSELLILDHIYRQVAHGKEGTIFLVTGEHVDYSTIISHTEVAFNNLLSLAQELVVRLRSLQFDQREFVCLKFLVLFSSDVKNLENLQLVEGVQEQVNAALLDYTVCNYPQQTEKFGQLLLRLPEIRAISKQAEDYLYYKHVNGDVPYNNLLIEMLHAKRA

luciferase reporter expression (luciferase cassette linked to the Oct4 promoter), fold increase on co-expression: 4 to 5 fold
Substance: Rarg (retinoic acid receptor gamma), full-length (from UniProt P18911 1-458)
